The record followed here is the nanobody polyreactivity screen of Harvey et al. (2022).

A short description of the series: yeast display, Sf9 membrane polyspecificity reagent, FACS + sequencing; frameworks hold sequencing errors. The procedure, abridged: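 Using colony PCR, genes from sorted yeast display clones were amplified, then sequenced on MiSeq at 2 × 250 and filtered by CDR length. The clones had been stained with 10% biotinylated, detergent-solubilized Sf9 membrane reagent for 1 hour at 4 °C and sorted by FACS into low and high (top ~1%) gates on anti-HA and streptavidin fluorescence. Polyreactivity labels come from the gate of origin.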
On to “QVQLVESGGGLVQAGGSLRLSCAASGRTFQGNVMGWYRQAPGKERELVAAISRSGSRTYYADSVKGRFTISRDNAKNTVYLQMNSLKPEDTAVYYCNALKSKRRQVIWYDYWGQGTQVTVSS”, for which the “polyreactivity (PSR sort gate)” value is recorded as “high polyreactivity”.

Turning to “QVQLVESGGGLVQAGRSHRLSCAASGRTFKPYAMGWYRPAPGKERELVARISGSGGSTYYADSVKGRFTISRDYAKNTVYLQMNSLNPEDIAVYYCATTPYYWFDYWGQGRQVTVSS”, the “polyreactivity (PSR sort gate)” value is “low polyreactivity”.

Take “QVQLVESGGGLVQAGGSLRLSCASSGSILWLNAMGWYRQAPGKERDLVAAITSRGGSTYYADSVKGRYTITRDNANNTVYLQMNSLKPEDTAVYYCATRSSRGSGSRFDYWGQGTQVTVSS”: the “polyreactivity (PSR sort gate)” value is on record as “high polyreactivity”.

Regarding “QVQLVESGGGLVQAGGSLRLSCAASGSIFSQYAMGWYRQAPGKERELVAAITYGGGSTYYADSVKGRFTISRDNAKNTVYLQMNSLKPEDTAVYYCAKEFKYWGYPYDYWGQGTQVTVSS”, the “polyreactivity (PSR sort gate)” value is “low polyreactivity”.

Take “QVQLQESGGGLVQAGGSLRLSCEASCYISDVNDMGWYRQAPGKEREFVAGFGYGGITNYADSVKGRFTISRDNAKNTVYLQMNSLKPKDSAVYNCAVHWGPDRGLYYWGQGTQVTVSS”: the “polyreactivity (PSR sort gate)” value is listed as “high polyreactivity”.

“QVQLVESGGGLVQAGGSLRLSCAASGIISYLYAMGWYRQAPGKERELVAVIRTSDAITYYADSVKGRFTISRDNAKNTVYLQMNSLKPEDTAVYYCAAEDVYEYDYWGQGTQVTVSS”: the “polyreactivity (PSR sort gate)” value is listed as “high polyreactivity”.

For “QVQIVESGGGLVQAGGSLRLSCAASGSTFDYYAMGWYRQAPGKERELVAGISASGGSTYYADSVKGRFTISRDNAKNTVYLQMNRMKPEDTAVYYCASYYKPPGYDYWGQGTQVTVSS”, the “polyreactivity (PSR sort gate)” value is “low polyreactivity”.

Regarding “QVQLVESWGGLVQAGGSLRLSCAASGSNFELYAMGWYRQAPGKERELVASITWSASNTHYADSVKGRFTISRDNAKNTVYLQINSLKTEDTAVYYCAKDVLYGLFDGDSWGQGTQVTVSS”, the “polyreactivity (PSR sort gate)” value was “low polyreactivity”.

Consider “QVQLVESGGGLVQAGGSLRLSCAASGFIFPDNAMGWYRQAPGKERELVATITSGGNTYYADSVKGRFTISRDNAKNTVYIQMNSLKPEDTAVYYSAAEWDYYDYDWYIAWTIDYWGQGTQVTVSS”, for which the “polyreactivity (PSR sort gate)” value is recorded as “low polyreactivity”.

In the case of “QVQLVESGGGLVQAGGSLRLSCAASGSNFLTYAMGRYRQAPGKEREFVAAISTSGVSTYYADSVKGRFTISRDNAKNTVYLQMNSLKPEDTAVYFCAAVYDLGYYGPIWAIVLDDYWGQGTQVTVSS”, the “polyreactivity (PSR sort gate)” value is on record as “low polyreactivity”.

On to “QVQLLETGRGLVQAGGSLRLSCASSGSIFFLYAMGWYRQAPGKERELVAAINWRTGRTYYADSVKWRFTISRDNAKNTVYFQMNSLKPEDTEVYYCAARSVPSPERGFYYWGQGTQVTVSS”, for which the “polyreactivity (PSR sort gate)” value was “high polyreactivity”.

As to “QVQLVESGGGLVQAGGSLRLSCAASGSTFPYVMGWYRQAPGKERELVAAISQSTGGITNYADSVKGRFTISRDNAKNTVYLQMNSLKPEDTAVYYCAATSWRYQQSTRYKGRRYYSWGQGSQVTVSS”, the “polyreactivity (PSR sort gate)” value is recorded as “high polyreactivity”.

As for “QVQLVESGGGLVQAGGSLRLSCAASGSTFGSNDMGWYRPAPGKERELVAGITWSGGSTFYADSVKGRFTISRDTAKNTVYLQMNSLKPEDTAVYYCAVSTEVNRYHAKYDYWGQGTQVTVSS”, the “polyreactivity (PSR sort gate)” value was “low polyreactivity”.

With “QVQLVESGGGLVQAGGSLRLSCAASGFIFSRYFMGWYRQAPGKERELVAAISWNVGSTYYADSVKGRFTISRDNAKNTVYLQMNSLKPEDTAVYYCAARDRRSVTMDYWGHGTQVTVSS”, the “polyreactivity (PSR sort gate)” value is reported as “high polyreactivity”.

On to “QVQLVESGGGLVQAGGSLRLSCAASGSIFSAYSMGWYRQAPGKERELVAAISKSGSSTYYADSVKGRFTISRDNANNTVYFQMNSLKPEDTAVYYCAAKRAGPYGITKGMDYWGQGTQVSVSS”, for which the “polyreactivity (PSR sort gate)” value is recorded as “high polyreactivity”.

Regarding “QVQLVESGGGLVHAGGSLRLSCAASGFIFKRYPMGWNRPAHGKERELVAVITRSGGSTYYADSVKGRFTISRDNAKNTVYLQMNSLKPEDTAVYYCAAQGLLKFYWGQGTQVTVSS”, the “polyreactivity (PSR sort gate)” value is reported as “high polyreactivity”.

“QVQLVESGGGLVQAGGSLSLSCAASGSIFHPYTMGWYRQAPGKERELVAGISQSSDSTYYADSVKGRFTISRDNAKNTVYLQMNSLKPEDTAVYYCNRDNDWPLSVVEVDYWGQGTQVTVSS”: the “polyreactivity (PSR sort gate)” value was “low polyreactivity”.

Consider “QVQLVESGGGLVQAGGSLRLSCAASGSTFYSYAMGWYRQAPGKERELVASITRGGSTNYADSVKGRFTISRDNAKNTVYLQMNSLKPEDTAVYYCITRGNARMDYWGQGTQVTVSS”, for which the “polyreactivity (PSR sort gate)” value is given as “high polyreactivity”.

“QVQLVESGGGLVQAGGSLRLSCAASGSIFAPYAMGWYRQAPGKERELVAAISSSGGSTYYADSVKGRFTISRDNAKNTLYLQMNSLKPEDTAVYYCAAETYHGLYDYWGQGTQVTVSS”: the “polyreactivity (PSR sort gate)” value is recorded as “low polyreactivity”.

As to “QVQLVESGGGLVQAGGSLRLSCAASGFIFDSYAMGWNRQAPGKERELVAAIDKRGGRTYYADSVKGRFTISRDNGKNTVYLQMNSLKPEDTAVYYCAADDYTGYGYWGQGTQVTVSS”, the “polyreactivity (PSR sort gate)” value is “high polyreactivity”.

For “QVHLVESVGGLVQAGGSHRLSCAASGRTLGFYAMGWYRQAPGKERELVAAINWSGGSTYYADSVKGRFTISRDNAKNTVYLQMNSLKPEDTAVYNCGVGTNYYDYWGQGTQVTVSS”, the “polyreactivity (PSR sort gate)” value is on record as “high polyreactivity”.

As for “QVQLVESGGGLVQAGGSLRLSCAASGRTFGYYAMGWYRQAPGKERELVAGIRSSGGSTYYADSVKGRFTISRDNAKNTVYLQMNSLKAEDTAVYYCAARLRSYNYRYGYDYWGQGTQVTVSS”, the “polyreactivity (PSR sort gate)” value is “high polyreactivity”.

As for “QVQLVESGGGLVQAGGSLRLSCAASGRIIGYYAMGWYRQAPGKEWELVAAITSSGSRTYYADSVKGRFTISRDNAKNTVYLQMNSLKPDDTAVYYCATTKVYYSAKSSYYYWGQGNQVTVSS”, the “polyreactivity (PSR sort gate)” value is “high polyreactivity”.

Turning to “QVQLVESGGGLVQAGGSLRLSCAASGGIFRFNAMGWYRQAPGKERELVAGISSTYYADSVKGRFTISRDNAKNTVYLQMNSLKPEDTAVYYCAAAGPEEHGYTYPGNNQMEYWGQGTQVTVSS”, the “polyreactivity (PSR sort gate)” value was “low polyreactivity”.

In the case of “QVQLVESGGGLVQAGGSLRLSCAASGFIFADYTMGWYRQPPGKERELVAAITRSGDSTYYADSVKGRFTISRDNAKNTVYLQMNSLKPEDTAVYYCNAVNDWYYAYYGVTSFRSYDYWGQGTQVTVSS”, the “polyreactivity (PSR sort gate)” value is “low polyreactivity”.

Turning to “QVQLVESGGGLVQAGGSLRLSCAASGYIFKYYAMGWYRQAPGKERELVTAIRSNDDSTYYADSVKGRFTISRDTAKNTVYLQMNSLKPEDTAVYYCAAATYGTRLRRYYYWGQGTQVTVSS”, the “polyreactivity (PSR sort gate)” value was “high polyreactivity”.

With “QVQIGESGGGLVQAGGSRRLSCAASGLTFYLYAMGWYRQAPGKERELVAAITTSGGSTYYADSVKGRFTISRDNAKNTVYLQMNSLKPEDTAVYDCATQGAIRGYGYWGQGTQVTVSS”, the “polyreactivity (PSR sort gate)” value is recorded as “high polyreactivity”.

“QVQLVESGGGLVQAGGSHRLSCAASGYIFDYNDMGWSRQAPGKERELVAAITYSRGSTYYADSVKGRFTISRDNAKNTVYLQMNSLQPEDTAVYYCAATFRSRGYSARRYYYWGQGTQVTVST”: the “polyreactivity (PSR sort gate)” value is given as “high polyreactivity”.

As for “QVQLVESGGGLVQAGGSLRLSCAASGSIFASYAMGWYRQPPGKERELVAAISIGGTTNYADSVKGRFTISRDNAKNTVYLQMYSLKPEDTAVYYCNAGRWLFNYYYWIYDVRYDYWGQGTQVTVSS”, the “polyreactivity (PSR sort gate)” value was “high polyreactivity”.

In the case of “QVQLVESGGGLVQAGGSLRLSCAASGGSFNNYAMGWYRQAPGKERELVAAITYSGVRTNYADSVKGRFTISRDNAKNTVYLQMNSLKPEDTAVYYCAADGLSNVRQMDYWGQGTQVTVSS”, the “polyreactivity (PSR sort gate)” value is recorded as “low polyreactivity”.

With “QVQLVESGGGLVQAGGSLRLSCAASGSIFEPYAMGWYRQAPGKERELVAAISWDVGRTYYADSVKGRFTISRDNAKNTVYLQMNSLKPEDTAVYYCAAEIAIDGYYKSWYDYWGQGTQVTVSS”, the “polyreactivity (PSR sort gate)” value was “high polyreactivity”.

In the case of “QVQLQESGGGLVQAGGSLRLSCAASGSILFSTLMGWSRQAPGKERELVATITTGTFTNYAGSVKGRFTISRDNAENTVYLQMNSLRPEDTAVYYSADYANHKAGFYYWGQGTQVTVSS”, the “polyreactivity (PSR sort gate)” value is “high polyreactivity”.

“QVQLVESGGGLVQAGGSLRLSCAASGSTFYLYAMGWYRQAPGKERELVATITNGGGTNYADSVKGRFTISRDNAKNTVYLQMNSLKAEDTAVYYCAAKWYHRDGDYWGQGTQVTVSS”: the “polyreactivity (PSR sort gate)” value was “low polyreactivity”.

In the case of “QVQLVESGGGLVQAGGSLRLSCAASGRIFSRYAMGWYRQAPGKERELVATISSGGGTYYADSVKGRFTISRDTAKNTVYLQMNSLKPEDTAVYYCAAASYSGHGRYDDWGQGTQVSVSS”, the “polyreactivity (PSR sort gate)” value is “high polyreactivity”.

For “QVQLVESGGGLVQAGGSLRLSCAASGITFTQYAMGWYRQAPGKERELVAAISKRGGRTYYADSVKGRFTISRDNAKNTVYLQMNSLKPEDTAVYYCATVPYGEVDYWGQGTQVTVSS”, the “polyreactivity (PSR sort gate)” value is “high polyreactivity”.

With “QVQLVESGGGLVQAGGSLRLSCAASGYIFKYNAMGWYRQAPGKERELVAAISSGGSTYYADSVKGRFTISRDNAKNTVYLQMNSLKPEDTAVYYCAARGVRSARIYYYWGQGTQVTVSS”, the “polyreactivity (PSR sort gate)” value is on record as “high polyreactivity”.

With “QVQLVESGGGLVQAGGSLRLSCAASGITFAQYAMGWYRQAPGKEREVVAGITRSGGSTHYADSVKGRFTISRDNAKNTVYLQMNSLKPEDTAVYYCNARYPYRGKRKPSDYWGQGTQVTVSS”, the “polyreactivity (PSR sort gate)” value is “high polyreactivity”.

“QVQLVESGGGLVQAGGSLRLSCDASGSTFPKYAMGWYRQAPGKEWELVASISARGGGTHYADSVKGRFTISRDNAKNTVYLQMNSLKPEDTAVYYCNDVAHRQAQGAWGPGTQVTVSS”: the “polyreactivity (PSR sort gate)” value is on record as “low polyreactivity”.

On to “QVQLVESGGGLVQAGGSLRLSSAASGLIFVHYAMGWSRQAPGKERELVSAISFRGGRTYYADSVKGRFTISRDNAKNTVYVQMNSLKPEDTAVSYCAATIKAYPTPLLGDYWGQGTQVTVSS”, for which the “polyreactivity (PSR sort gate)” value was “high polyreactivity”.

Take “QVQLVESGGGLVQAGGSLRLSCAASGSIFDRYAMGWYRQAPGKERELVAAISKSGGRTYYADSVKGRLTISRDNAKNTVYLQMNSLKPEDTAVYYCAADPLLGYLSHYYWGQGTQVTVSS”: the “polyreactivity (PSR sort gate)” value was “high polyreactivity”.

In the case of “QVQLVESGGGLVQAGGSLRLSCAASGIIFNRYAMGWYRQAPGKERELVAAISASGDSTYYADSVKGRFTISRDNAKYTVYLQMNSLKPEDTAVDYCAADYGYRYDYWGHGTQVTVSS”, the “polyreactivity (PSR sort gate)” value is reported as “low polyreactivity”.
